According to patent publication US20060258607:
pKd: −log10 of the molar value.

Molecular target: biotinylated human D-ghrelin (octanoylated) (Homo sapiens) (UniProt Q9UBU3)
Test: pulldown
Conditions: 37 C, 1 mM Ca/Mg, 47% active

UniProt Q9UBU3, sequence (Q9UBU3 24-51): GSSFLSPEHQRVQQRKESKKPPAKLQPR

Sequence: CGUGUGAGGCAAUAAAACUUAAGUCCGAAGGUAACCAAUCCUACACG [SOT-C (B11trc, D-RNA)]
- pKd: 7.00
